Article PMC3638396 (Philosophical Transactions of the Royal Society B: …, 2013)

How the values were obtained:
[1] = target: the molecule itself; test: quartz crystal microbalance; sonicated Ure2p fibril seeds attached to the gold sensor by Traut's reagent; 1 μM soluble Ure2p introduced, measured without flow; Tris buffer pH 8.4; elongation of the surface-bound seeds
WT Ssa1p = target: T1, WT Ssa1p (yeast (S. cerevisiae), UniProt P10591 1-642); test: co-sedimentation; called 'pull-down assay' / 'filament pull-down assay': 10 μM Ure2p fibril seeds with 20 μM WT or ΔA Ssa1p, Tris buffer pH 8.4, 30°C, 2 h; centrifuged through 40 per cent sucrose at 61 000 rpm, 30 min, 4°C; washed pellets on SDS-PAGE; details: both partners purified
T1 construct: Ssa1p, yeast HSP70 family member, residues 1-642 (NBD, SBD, CTD); also called wild-type Ssa1p; full-length Ssa1p; source: plasmid pPROEX-HTb-Ssa1
T1 sequence (P10591 whole entry, the tested form may be a part): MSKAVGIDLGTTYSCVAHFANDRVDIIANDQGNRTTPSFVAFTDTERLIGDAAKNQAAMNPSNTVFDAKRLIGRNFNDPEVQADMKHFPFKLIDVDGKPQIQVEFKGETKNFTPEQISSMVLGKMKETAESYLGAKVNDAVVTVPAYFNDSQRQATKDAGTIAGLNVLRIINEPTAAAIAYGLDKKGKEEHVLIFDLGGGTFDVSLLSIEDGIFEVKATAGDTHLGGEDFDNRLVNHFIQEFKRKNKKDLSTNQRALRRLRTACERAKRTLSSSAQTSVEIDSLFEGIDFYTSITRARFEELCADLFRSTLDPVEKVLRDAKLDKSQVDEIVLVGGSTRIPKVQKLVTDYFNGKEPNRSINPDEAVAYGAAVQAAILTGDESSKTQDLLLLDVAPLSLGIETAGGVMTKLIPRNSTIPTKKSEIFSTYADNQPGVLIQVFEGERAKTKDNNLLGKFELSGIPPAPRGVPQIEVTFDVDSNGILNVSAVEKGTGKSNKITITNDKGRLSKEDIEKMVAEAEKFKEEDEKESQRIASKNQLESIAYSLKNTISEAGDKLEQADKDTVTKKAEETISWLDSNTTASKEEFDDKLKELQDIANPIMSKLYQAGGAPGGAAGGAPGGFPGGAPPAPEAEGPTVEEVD

B1: Ure2p (natural protein, Saccharomyces cerevisiae, UniProt P23202 1-354, looked up)
chain: MMNNNGNQVSNLSNALRQVNIGNRNSNTTTDQSNINFEFSTGVNNNNNNNSSSNNNNVQNNNSGRNGSQNNDNENNIKNTLEQHRQQQQAFSDMSHVEYSRITKFFQEQPLEGYTLFSHRSAPNGFKVAIVLSELGFHYNTIFLDFNLGEHRAPEFVSVNPNARVPALIDHGMDNLSIWESGAILLHLVNKYYKETGNPLLWSDDLADQSQINAWLFFQTSGHAPMIGQALHFRYFHSQKIASAVERYTDEVRRVYGVVEMALAERREALVMELDTENAAAYSAGTTPMSQSRFFDYPVWLVGDKLTIADLAFVPWNNVVDRIGINIKIEFPEVYKWTKHMMRRPAVIKALRGE
notes: Ure2p, the protein determinant of the Saccharomyces cerevisiae prion state [URE3]; a 354-residue protein; One construct used in two states: native soluble protein (DLS, solution phase of QCM) and sonicated fibril seeds (co-sedimentation, QCM sensor; seeds treated with Traut's reagent for the sensor); The state is told in each assay's format; also called native Ure2p; soluble Ure2p; source: …
[1]
  binding result: binds
WT Ssa1p
  binding result: binds
